Consider two molecules from US11311610B2, “Immune-modulating agents and uses therefor” (UNIVERSITY OF TECHNOLOGY SYDNEY, priority 2010, dated 2022).

Assay [1] concerns interaction of LPS with LPS-binding protein (LBP). As to the kind of experiment: Assay for the interaction of LPS with LBP (ELISA). More on the design: species or system mouse. Particulars: 5 μg/well, 1 h before 10% sera; ELISA with anti-LBP. The procedure: (§1) FIG. 9 is a graphical representation showing LPS neutralization by FhHDM-1. The ability of FhHDM-1 (Δ), FhHDM-1 p1 (●) or FhHDM-1 p3 (▪) to bind to LPS was investigated by (A) incubating a range of concentrations of proteins (0.02-2 μg/well) in an LPS-coated (100 ng/well) microtitre plate. Bound peptides were detected by ELISA using rabbit anti-FhHDM-1 as a primary antibody. (B) FhHDM-1 or derived peptides (0.1 μg) were incubated in the presence of LPS (0.05-5 μg/well) and bound peptides measured as described above. Binding of peptides to the LPS-immobilized plates was expressed as a percentage of that measured for 2 μg (for panel A) or 0.1 μg (for panel B) of FhHDM-1. Data are the means±SD from three separate experiments. (C) FhHDM-1 and FhHDM-1 p3 but not FhHDM-1 p1 reduced the interaction between LPS and LBP as effectively as LL-37. LPS-coated microtitre plates were incubated with 5 μg/well of LL-37, FhHDM-1 or derived peptides for 1 h prior to the addition of 10% human sera in PBS. Interaction of LBP with LPS was measured by ELISA using an anti-LBP primary antibody and expressed as a percentage of that detected for 10% sera in the absence of added peptides. Data are the mean±SD of three separate experiments. Statistical significance was calculated using the student t-test and represent a comparison to the binding of 10% sera to immobilized LPS. (D) Binding of FITC-conjugated LPS to RAW264.7 cells was inhibited by LL-37, FhHDM-1 and peptides. […] The binding of FITC-LPS was analyzed by flow cytometry. LPS binding was expressed as a percentage of the mean fluorescence obtained for the addition of FITC-LPS to cells in the absence of peptides. […] Two hours later, sera was collected and serum levels of TNF and (F) IL-10 measured by ELISA. (G) Peritoneal macrophages were isolated, cultured unstimulated in media overnight and then levels of TNF and (H) IL-10 in the culture measured by ELISA. […]
The ability of FhHDM-1 and derived peptides to block the interaction of LPS with LPB was assessed by ELISA using an anti-LBP primary antibody. […]

Another assay in a line: LPS-binding ELISA. More on the design: species or system E. coli. Particulars: for binding to immobilised LPS: 0.02-2 μg/well on LPS-coated plate (100 ng/well). The procedure: as §1
The ability of FhHDM-1 and derived peptides to bind LPS from E. coli 0111:B4 was determined by ELISA using rabbit anti-FhHDM-1 as a primary antibody (FIG. 9A). […]
In general terms: In an ELISA, binding on a coated surface is turned into a signal by an enzyme label.

In the case of “KARDRAMAYLAKDNLGEKITEVITILLNRL (FhHDM-1 peptide 1 comprising a truncated amphipathic helix contained in FhHDM-1) [FhHDM-1 p1, peptide in which the amphipathic helix is truncated]”, the “interaction between LPS and LBP” value in assay [1] was “did not block”. In addition, the “binding to immobilised LPS” value in the assay “LPS-binding ELISA” was “did not bind to LPS”.

B1: FhHDM-1: 90-residue polypeptide from F. hepatica, Helminth Defense Molecule-1 (SEQ ID NO:24); recombinant form minus N-terminal signal peptide, expressed in E. coli (protein, listed as Fasciola hepatica)
chain: MRFIVLLCLAEVLLAAYVEARPSEESREKLRESGRKMVKALRDAVTKAYEKARDRAMAYLAKDNLGEKITEVITILLNRLTDRLEKYAGN
As to B1, the “interaction between LPS and LBP” value in assay [1] was “significantly reduced”. Besides, the “binding to free LPS in solution (competition with immobilised LPS)” value in the assay “LPS-binding ELISA” (0.1 μg/well with LPS 0.05-5 μg/well) was “bound to free LPS in solution”. For the same molecule, the “binding to immobilised LPS” value in the assay “LPS-binding ELISA” is “bound to LPS in a concentration-dependent manner”.
